Source: PMC11511291, “Structures of the Varicella Zoster Virus Glycoprotein E and Epitope Mapping of Vaccine-Elicited Antibodies” (Vaccines, 2024)

B1: Fab 1E3 (recombinant Fab of human anti-gE antibody 1E3, elicited by ZVL vaccination) (Fab, V domains shown)
VH: QVQLQESGPGLVKPSQTLSLTCTVSGGSISSNDYYWTWIRQSPGKGLEWIGFISYNGDTYYNPSLKRRGTISVDTSKIQFSLRLSSVTAADTAVYYCARVRTSSTTSYYFDYWGQGTLVTVSS
VL: DIQMTQSPSSLSASVGDRVTITCRASQGIRNYLNWYQQKPGKAPMLLIYGASSLQNGVPSRFSGSGSGTEFTLTISSLQPEDFATYYCQQSYRTLTFGPGTKVDIK
notes: also called 1E3 Fab; source: HEK293 Expi cells, transient, purified (StrepTrap HP, SEC)
B2: Fab 5A2 (recombinant Fab of human anti-gE antibody 5A2, elicited by ZVL vaccination) (Fab, V domains shown)
VH: QVQLQESGPGLVKPSETLSLTCIVSGGSISRYYWSWIRQPPGRGLEWIGNIYYTGTTNYNPSLQSRVTISLDTSKNQFSLRLTSVTAADTAVYYCARIGGVSFGERPIDYWGQGTLVTVSS
VL: DIQMTQSPSSLSASVGDRVTITCRASQTISTYLNWYQQKPGKAPKLLIYAASTLQSGVPSRFSGSGSGTDFTLTITSLQPEDFAAYYCQQSYSIPLTFGGGTKVEIK
notes: also called 5A2 Fab; source: HEK293 Expi cells, transient, purified (StrepTrap HP, SEC)
B3: Fab 1E8 (recombinant Fab of human anti-gE antibody 1E8, elicited by ZVL vaccination) (Fab, V domains shown)
VH: QVQLQESGPGLVRPSQTLSLTCTVSGGSITSGSFYWSWVRQSAGKGLEWIGRIFKTGSTTYKPSLKSRVTMSVDTSKNQFSLKLSSVTATDTAVYFCARAPFYNDFSGYSYYFDYWGQGTLVTVSS
VL: QSVLTQPPSASGTPGQRVTISCSGSSSDIGPNTVHWYRQVPGTAPTLLIYSDNQRPSGVPARFSGSRSGTSASLAISGLQSEDEAIYYCAAWDDSLNPLYVFGTGTKVTVL
notes: source: HEK293 Expi cells, transient, purified (StrepTrap HP, SEC)
B4: Fab 1A2 (recombinant Fab of human anti-gE antibody 1A2, elicited by ZVL vaccination) (Fab, V domains shown)
VH: EVQLVQSGAEMKKPGASVKVSCKTSGYVFNEYYIHWVRQAPGQGLEWLGRINPNSGDANYAPKFQGRVTLTRDTSIRTYFMELNRLRSDDTAVYYCARIMYFEYDSWSDYWGQGTLVTVSS
VL: DIQMTQSPSSLSASVGDRVTITCRASQSIRSNLNWYQQKPGKAPNVLIYATSSLQSGVPSRFSGSGSGTDFTLTIRSLQPEDFATYYCQQSYSLPWTFGQGTKVEIK
notes: as for B3

Legend:
[1] = target: T1, VZV glycoprotein E, full-length gE ectodomain (gE_FL) (Varicella-zoster virus; strain not …, UniProt P09259); assay: BLI; Octet Red96; Fabs loaded onto FAB2G biosensors (0.5 to 1.0 nm), gE as analyte at 25 nM to 1.6 nM; 1 x PBS with 1% BSA; conditions: both partners purified
T1 construct: Varicella zoster virus glycoprotein E (gE), 'full-length gE ectodomain', includes the disordered N-terminal region (residues 1-115); The construct used in the HPLC-SEC binning is only called 'VZV gE'; also called FL gE; VZV gE; source: Expi293 cells, transfected, purified from culture supernatant (HisTrap, Superdex 200 SEC)

[2] = target: T1, VZV glycoprotein E, full-length gE …; assay: SEC; HPLC-SEC epitope binning: VZV gE mixed with primary Fab at mass ratio 1:3 for 10 min at room temperature, then with secondary Fab at the same ratio; Superdex 200 Increase 3.2/300; conditions: both partners purified

T1 sequence (P09259 whole entry, looked up, the tested form may be a part): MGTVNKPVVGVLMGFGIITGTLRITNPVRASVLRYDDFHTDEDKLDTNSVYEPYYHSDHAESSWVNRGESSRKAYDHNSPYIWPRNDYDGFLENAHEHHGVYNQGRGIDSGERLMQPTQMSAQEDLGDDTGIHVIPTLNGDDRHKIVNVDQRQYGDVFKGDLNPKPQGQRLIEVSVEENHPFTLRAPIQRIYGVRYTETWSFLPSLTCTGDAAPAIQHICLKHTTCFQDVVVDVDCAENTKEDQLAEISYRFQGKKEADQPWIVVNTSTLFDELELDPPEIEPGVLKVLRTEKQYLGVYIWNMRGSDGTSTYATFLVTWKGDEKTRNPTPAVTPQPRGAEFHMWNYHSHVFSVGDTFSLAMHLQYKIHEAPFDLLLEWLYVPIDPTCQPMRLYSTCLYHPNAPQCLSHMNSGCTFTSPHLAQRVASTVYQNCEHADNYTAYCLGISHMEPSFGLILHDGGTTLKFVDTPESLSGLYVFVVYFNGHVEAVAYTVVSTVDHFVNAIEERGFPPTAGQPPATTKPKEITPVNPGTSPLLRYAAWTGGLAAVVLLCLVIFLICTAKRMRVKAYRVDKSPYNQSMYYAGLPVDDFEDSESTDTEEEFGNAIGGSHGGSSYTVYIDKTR

Binder | binding result [1] | binding result [2]
B1 | binds | –
B2 | binds | –
B3 | – | binds
B4 | binds | –
